# Measured values as given in article PMC3199733, “Expression, purification, electron microscopy, N-glycosylation mutagenesis and molecular modeling of human P2X4 and Dictyostelium discoideum P2XA” (Biochimica et Biophysica Acta, 2011).
# Several values for one entry are separate records, joined by “and”; a condition that tells them apart may be missing. Equal values may be shown once.
# Target: the molecule itself
# Experiment: native gel or EMSA; non-denaturing PFO-PAGE (6% gels, 4% PFO) with anti-His Western blot of Sf9 membranes, untreated (Total) or solubilised in 1% (w/v) detergent (DDM, beta-OG, TX-100, FC-12, C12E8, LDAO) in TBS, 1 h on ice
row,Protein,stoichiometry N
1,"human P2X4-(His)10 (receptor, UniProt Q99571 1-388, looked up, human P2X4 receptor, full-length wild type; N-glycosylated (insect-cell type); also called hP2X4; source: Sf9 cells, baculovirus-infected; in membranes, untreated or detergent-solubilised) MAGCCAALAAFLFEYDTPRIVLIRSRKVGLMNRAVQLLILAYVIGWVFVWEKGYQETDSVVSSVTTKVKGVAVTNTSKLGFRIWDVADYVIPAQEENSLFVMTNVILTMNQTQGLCPEIPDATTVCKSDASCTAGSAGTHSNGVSTGRCVAFNGSVKTCEVAAWCPVEDDTHVPQPAFLKAAENFTLLVKNNIWYPKFNFSKRNILPNITTTYLKSCIYDAKTDPFCPIFRLGKIVENAGHSFQDMAVEGGIMGIQVNWDCNLDRAASLCLPRYSFRRLDTRDVEHNVSPGYNFRFAKYYRDLAGNEQRTLIKAYGIRFDIIVFGKAGKFDIIPTMINIGSGLALLGMATVLCDIIVLYCMKKRLYYREKKYKYVEDYEQGLASELDQ",2 and 3
2,"Dictyostelium discoideum P2XA-(His)6 (receptor, UniProt Q86JM7 1-378, looked up, P2XA receptor of Dictyostelium discoideum, full-length wild type, from a human codon-optimised cDNA; N-glycosylated (insect-cell type); also called DdP2XA; DdP2XA-(His)6; source: Sf9 cells, baculovirus-infected; in detergent-solubilised membranes, and purified (Ni-sepharose, preparative PFO-PAGE)) MGFSFDWDDIFQYSTVKIVRIRDRRLGILHLSFLVGIVAYIVVYSAIIKKGYLFTEVPIGSVRTSLKGPNTFASNLTYCSNQQHNGSTYPFTPLECNYWDEQLALFPVGQDSTFTCTTRVRLSKQEANCNFTDPTCKFVDEPGSAKNIYIADIESFTILIDHTMYASSSGSQFNAVDLHGYILNQDGDEVQIDANGTSIGVSGKPDIMTIGQLLSFGGVSLDQASPVDSNVSIRYDGVVLFVFITYSNTYTYSTSDFKYVYSVQQIANTIYDVPETIILESIHSRLLYKRHGIRVIFIQTGTIGSFHFQTLLLTLVSGLGLLAVATTVVDQLAIRLLPQRKSYSSLKFQVTESMSNPMKKRITTDEGEDVLYTRIEGL",3
